The values below come from the nanobody polyreactivity screen of Harvey et al. (2022).

The data set is described as follows: yeast display, Sf9 membrane polyspecificity reagent, FACS + sequencing; frameworks hold sequencing errors. In a few lines: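 After 36–48 hours of galactose induction, yeast (Saccharomyces cerevisiae BJ5465) displaying a synthetic nanobody library were stained at 4 °C for 1 hour with 10% biotinylated, detergent-solubilized Sf9 membrane reagent. Streptavidin microbeads enriched the stained cells before FACS sorting into low and high (top ~1%) gates on anti-HA and streptavidin fluorescence. Each clone's polyreactivity label reflects its gate of origin.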
As to “QVQLVESGGGLVQAGGSLRLSCAASGRTLRSNAMGWYRQAPGKERELVAAISSNGGSTYYADSVKGRFTISRDNAKNTVYLQMNSLKPEDTAVYYCAALSYYYSDRMDYWGQGTQVTVSS”, the “polyreactivity (PSR sort gate)” value is on record as “low polyreactivity”.

Turning to “QVQLVESGGGLVQAGGSLRLSCAASGRTLRYYAMGWYRQAPGKERELVAAITSSDRTYYADSVKGRFTISRDNAKNTVYLQMNSLKPEVTAVYYCAAYRATQFGYYYWGQGTQVTVSS”, the “polyreactivity (PSR sort gate)” value was “high polyreactivity”.

Take “QVQLVESGGGLVQAGGSLRLSCAASGRTLRYYAMGWYRQAPGKERELVASISIGGSTFYADSVKGRFTISRDNAKNTVYLQMNSLKPEDTAVYYCAAENFWQTKEYDYWGQGTQVTVSS”: the “polyreactivity (PSR sort gate)” value is given as “low polyreactivity”.

Regarding “QVQLVESGGGLVQAGGSLRLSCAASGRTLSGYAMGWYRQAPGKERELVAVITSGGSTYYADSVKGRFTISRDNAKNTVYLQMNSVKPEDTAVYYCSARRGRRLQDSQYWGQGTQVTVSS”, the “polyreactivity (PSR sort gate)” value is listed as “high polyreactivity”.

Consider “QVQLVESGGGLVQAGGSLRLSCAASGRTLSHYAMGWYRQAPGKERELVAAITRSGGSTYYADSVKGRFTISRDNAKNTVYLQMNSLKPEDTAVYYCNKTLYTTYDYWGQGTQVTVSS”, for which the “polyreactivity (PSR sort gate)” value was “low polyreactivity”.

Take “QVQLVESGGGLVQAGGSLRLSCAASGRTLSYYAMGWYRQAPGKHRELVAAITYRAGRTYYADSVKGRFTISRDNAKYTVYLQLNSLKPEVTAVYYCYAVKSTGYGYWGQGTQVTVSS”: the “polyreactivity (PSR sort gate)” value is recorded as “high polyreactivity”.

For the sequence “QVQLVESGGGLVQAGGSLRLSCAASGRTLTRYAMGWYRQAPGKERELVATISRCGSTNYADSVKGRFTISRDNGKNTVYLQMNSLKPEDTAVYYCAARGRLTAEFDYWGQGTQVTVSS”, the “polyreactivity (PSR sort gate)” value is on record as “low polyreactivity”.

In the case of “QVQLVESGGGLVQAGGSLRLSCAASGRTLVDYGMGWYRQPPGKERELVAVITSGGSTYYADSVKGRFTISRDNAKNTVYLVMNSLKPEDTAVYYCNARHPYYTVQTGGYDYWGQGTQVTVSS”, the “polyreactivity (PSR sort gate)” value is listed as “low polyreactivity”.

For “QVQLVESGGGLVQAGGSLRLSCAASGRTLVGNAMGWYRQAPGKERELVAAISWSGGSTNYADSVKGRFTISRDNAKNTVYLQMNSLKPEDTAVYYCAASVYTYRYWDYYWGQGTQVTVSS”, the “polyreactivity (PSR sort gate)” value is “high polyreactivity”.

As for “QVQLVESGGGLVQAGGSLRLSCAASGRTLVKNAMGWYRQAPGKERELVAAISTSGGRTYYADSVKGRFTISRDNAKNTVYLQMNSLKPEDTAVYYCAAVLYATRPVYGFDSWGQGTQVTVSS”, the “polyreactivity (PSR sort gate)” value is “high polyreactivity”.

Consider “QVQLVESGGGLVQAGGSLRLSCAASGRTLVLYVMGWYRQAPGKERELVAAISSGGSTNYADSVKGRFTISRDNAKNTVYLQMNSLKPEDTAVYYCAARFVLRRDYGYGGQGTQVTVSS”, for which the “polyreactivity (PSR sort gate)” value is recorded as “high polyreactivity”.

For “QVQLVESGGGLVQAGGSLRLSCAASGRTLVPYAMGWYRQAPGKERELVAAINSSGGSTYYADSVKGRFTISRDNAKNTVYLQMNSLKPEDTAVYYCNVQSVHFRLWKDNYWGQGTQVTVSS”, the “polyreactivity (PSR sort gate)” value was “high polyreactivity”.

As to “QVQLVESGGGLVQAGGSLRLSCAASGRTLVRYTMGWYRQAPGKERELVASISQRGGTTYYADSVKGRFTISRDNAKNTVYLQMNSLKPEDTAVYYCNKASVSGSSGGGYESWGQGTQVTVSS”, the “polyreactivity (PSR sort gate)” value is on record as “low polyreactivity”.

For “QVQLVESGGGLVQAGGSLRLSCAASGRTLVVYAMGWYRQAPGKERELVADINWSGGRTYYADSVKGRFTISRDNAKNTVYLQMNSLKPEDTAVYYWAADLSWRQYYREYDYWGQGTQVSVSS”, the “polyreactivity (PSR sort gate)” value is reported as “high polyreactivity”.

Consider “QVQLVESGGGLVQAGGSLRLSCAASGRTLVYYAMGWYRQAPGKERELVAAISWSGSRTYYADSVKGRFTISRDNAKNTVYLQMNSLKPEDTAVYYCATLTFRTNGTMDYWGQGTQVTVSS”, for which the “polyreactivity (PSR sort gate)” value is listed as “high polyreactivity”.

In the case of “QVQLVESGGGLVQAGGSLRLSCAASGRTLWIYAMGWYRQAPGKERELVASITTRGGSTYYADSVKGRFTISRDNAKNTVYLQMNSLKPEDTAVYYCAAEGYTYYTYYPHDYWGQGTQVTVSS”, the “polyreactivity (PSR sort gate)” value is listed as “high polyreactivity”.

For “QVQLVESGGGLVQAGGSLRLSCAASGRTLWSYAMGWYRQAPGKEREIVAAISRRGGITYYADSVKGRFTISRDYAKNTVFLQRISLKPVDTAVFYSAKGAQSYYGGQVKYDYWGQGTQVTVSS”, the “polyreactivity (PSR sort gate)” value is listed as “high polyreactivity”.

Turning to “QVQLVESGGGLVQAGGSLRLSCAASGRTLWTNAMGWYRQAPGKEREFVAPITWRGGSTYYADSVKGRFTISRDNAKNTVNLQMNSLKPEDTAVYYCATLIPRKGSRYYHRGYWGQGSQVTVSS”, the “polyreactivity (PSR sort gate)” value was “high polyreactivity”.

As to “QVQLVESGGGLVQAGGSLRLSCAASGRTLYIYAMGWYRQAPGKERELVAAITRRGDSTYYADSVKGRFTISRDNAKNTVYLQMNSLKPVDTAVYYCAADFPDTSSQYDPAYEYWGQGTQVTVSS”, the “polyreactivity (PSR sort gate)” value is recorded as “low polyreactivity”.

Turning to “QVQLVESGGGLVQAGGSLRLSCAASGRTLYLYAMGWYRQEPGKERELVAGITWSGGSTYYADSVKGRFTISRDNAKNTVYLQMNSLKPEDTAVYYCAAVSYPDYDYWGQGTQVTVSS”, the “polyreactivity (PSR sort gate)” value is “low polyreactivity”.

“QVQLVESGGGLVQAGGSLRLSCAASGRTLYWYAMGWYRQAPGKERELVAAISSGGGSTYYADSVKGRFTISRDNAKNTVYLQMNSLKPEDTAVYYCATDEPWVYGYDYWGQGTQVTVSS”: the “polyreactivity (PSR sort gate)” value is reported as “low polyreactivity”.

In the case of “QVQLVESGGGLVQAGGSLRLSCAASGRTMGQNVMGLYRQAPGKERELVAAISSNTAGNTYYADSVKGRFTISRDNAKNTVYLQMNSLKPEDTAVYYCAKVDSFEAKLDYWGQGTQVTVSS”, the “polyreactivity (PSR sort gate)” value is recorded as “low polyreactivity”.

In the case of “QVQLVESGGGLVQAGGSLRLSCAASGRTMYRNAMGWYRQAPGKERELVDDISRSGGSTFYADSVKGRFTISRDNAKNTVYLQMNSLKPEDTAVYYCNADYQEYVSGYDYWGQGTQVTVSS”, the “polyreactivity (PSR sort gate)” value is “high polyreactivity”.

In the case of “QVQLVESGGGLVQAGGSLRLSCAASGRTSAKYAMGWYRQAPGKERELVAVITKNSGSTYYADSVKGRFTISRDNAKNTVYLQMNSLKPEDTAVYYCNRVPRGINRQSRPEDYWGQGTQVTVSS”, the “polyreactivity (PSR sort gate)” value is on record as “high polyreactivity”.

Take “QVQLVESGGGLVQAGGSLRLSCAASGRTSARYGMGWYRQAPGKERELVASIRRSGDSTYYADSVKGRFTISRDNAKNTVYLQMNSLKPEDTAVYYCAAGGKQGKRDYWGQGTQVTVSS”: the “polyreactivity (PSR sort gate)” value is on record as “low polyreactivity”.

Consider “QVQLVESGGGLVQAGGSLRLSCAASGRTSEFNAMGWYRQAPGKERELVAAITDGGNTNYADSVKGRFTISRDNAKNTVYLQMNSLKPEDTAVYYCAAERYTWWGFDYDYWGQGTQVTVSS”, for which the “polyreactivity (PSR sort gate)” value is given as “high polyreactivity”.

Take “QVQLVESGGGLVQAGGSLRLSCAASGRTSFWNAMGWYRQAPGKERELVSAISASVGRTYYADSVKGRFTISRDNAKNTVYLQMNSLKPEDTAVYYSAKVYHAGTGYPSLGLDYWGQGTQVTVSS”: the “polyreactivity (PSR sort gate)” value is “low polyreactivity”.

“QVQLVESGGGLVQAGGSLRLSCAASGRTSGYYAMGWYRQAPGKERELVAAISGGDSTNYADSVKGRFTFSRDNAKNTVYLQMNSLKPEDTAVYYCAKRTRVSWVPTFDYWGQGTQGTVSS”: the “polyreactivity (PSR sort gate)” value is “low polyreactivity”.

Regarding “QVQLVESGGGLVQAGGSLRLSCAASGRTSHRNVMGWYRQAPGTEREVVARISRSGGRTYYADSVKGRFTISRDNAKNTVYSQMNSLKPEDTAVYYCNADYSSRGANYDYWGQGTQVTVSS”, the “polyreactivity (PSR sort gate)” value is reported as “high polyreactivity”.

Turning to “QVQLVESGGGLVQAGGSLRLSCAASGRTSNVYAMGWYRQAPGKERELVAAISSRDGTTYYADSVKGRFTISRDNAKNTVYLQMNSLKPEDTAVYYCAAAVLSYADYYYDYEYWGQGTQVTVSS”, the “polyreactivity (PSR sort gate)” value is “high polyreactivity”.

In the case of “QVQLVESGGGLVQAGGSLRLSCAASGRTSPVYAMGWYRQAPGKERELVAAIRGGARTYYADSEKGRFTISRDNAKNTVYLQMNSLKPEDTAVYYCATGSRYRLGPGDSWGQGTQGTVSS”, the “polyreactivity (PSR sort gate)” value is reported as “high polyreactivity”.

For the sequence “QVQLVESGGGLVQAGGSLRLSCAASGRTSRFDAMGWDIEAPGKERELVARITTRGGSTYYADSVKGRFTISRDNAKNTVYLQMNSLKPEDTAVYFCNAKVTRGDVGGRFEYWGQGTQVTVSS”, the “polyreactivity (PSR sort gate)” value was “high polyreactivity”.

As for “QVQLVESGGGLVQAGGSLRLSCAASGRTSRFYAMGWYRQAPGKERELVARITTRGGSTYYADSVKGRFTISRDNAKNTVYLQRNSLKPEDTAVYYCNTAFWYSRSMDYWGQGTQVTVSS”, the “polyreactivity (PSR sort gate)” value is “high polyreactivity”.

As for “QVQLVESGGGLVQAGGSLRLSCAASGRTSRIYAMGWYRPAPGKRELVAAISGSGSRTYYADSVKGRFTISRDNAKNTVYIQMNSLKPEDTAVYYCNGRYWYRDHPPEFDYWGQGTQVTVSS”, the “polyreactivity (PSR sort gate)” value is listed as “high polyreactivity”.

For the sequence “QVQLVESGGGLVQAGGSLRLSCAASGRTSSRNAMGWYRQAPGKERELVAAISQSGGSTYYADSVKGRFTISRDNAKNTVYLQMNSLKPEDTAVYYCAKEYKPQSYPTYYNYYYWGQGTQVTVSS”, the “polyreactivity (PSR sort gate)” value is given as “low polyreactivity”.

“QVQLVESGGGLVQAGGSLRLSCAASGRTSSTYDMGWYRQAPGKERELVADITWSGGSTYYADSVKGRFTISRDNAKNTVYLQMNRLKPEDTAVYYCAAPFVKFVGSLVYAGYDSWGQGTQVTVSS”: the “polyreactivity (PSR sort gate)” value is “low polyreactivity”.

On to “QVQLVESGGGLVQAGGSLRLSCAASGRTSSWYVMGWYRQAPGKERELVAAISGSGGSTYYADSVKGRFTISRDNAKNTVYLQMNSLKPEDTAVYYCAADSWSYSGYNYWGQGTQVTVSS”, for which the “polyreactivity (PSR sort gate)” value was “high polyreactivity”.

For “QVQLVESGGGLVQAGGSLRLSCAASGRTSTQNAMGWYRQAPGKERELVAAITTGGGSTYYADSVKGRFTISRDNAKNTVYLQMNSLKPEDTAVYYCAARTPQRSEWTKYGYWGQGTQVTVSS”, the “polyreactivity (PSR sort gate)” value is “low polyreactivity”.

For the sequence “QVQLVESGGGLVQAGGSLRLSCAASGRTSVNYAMGWYREAPGKERELVASITYSDGRTYYADSVKGRFTISRDNAKNTVYLQMNSLKPEDTAVYYCAARGYSYRGWRMDYWGQGTQVTVSS”, the “polyreactivity (PSR sort gate)” value is “high polyreactivity”.

Take “QVQLVESGGGLVQAGGSLRLSCAASGRTSVVHAMGWYRQAPGKERELVAAITSGGSTHYADSVKGRFTISRDNAKNTVYLQMNSLKPEDTAVYSCNARDRRRTNLLDYWGQGTQVTVSS”: the “polyreactivity (PSR sort gate)” value is “low polyreactivity”.

For “QVQLVESGGGLVQAGGSLRLSCAASGRTSWRYAMGWYRQAPGKERELVAANNRGGSTYYADSVKGRFTISRDNAKNTVYLQMNSLKPEDTAVYYCAVDTPLEYYHQQAYVAGEYWGQGTQVTVSS”, the “polyreactivity (PSR sort gate)” value is listed as “low polyreactivity”.
